Experimental data: US20180362604A1 (SHIRE HUMAN GENETIC THERAPIES, published 2018)

Legend:
Activin A [1] = biological target: T1, Activin A (UniProt P08476 311-426); assay: cell-based or functional assay
T1 sequence (looked up): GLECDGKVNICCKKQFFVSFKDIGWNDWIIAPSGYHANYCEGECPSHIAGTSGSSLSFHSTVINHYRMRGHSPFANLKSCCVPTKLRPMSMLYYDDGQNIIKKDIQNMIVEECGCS

Myostatin [2] = biological target: T2, Myostatin (UniProt O14793 267-375); assay: cell-based or functional assay
T2 sequence (looked up): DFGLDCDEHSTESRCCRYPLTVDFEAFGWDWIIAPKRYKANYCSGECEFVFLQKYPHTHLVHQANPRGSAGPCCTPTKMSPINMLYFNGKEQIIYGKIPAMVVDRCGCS

Myostatin [3] = biological target: T2, Myostatin; assay: SPR (BIAcore), myostatin as analyte
Activin A [4] = biological target: T1, Activin A; assay: surface plasmon resonance
Myostatin [5] = biological target: T2, Myostatin; assay: surface plasmon resonance

B1: ActRIIB-Fc (Fc fusion, UniProt Q13705 19-134, looked up, not shown: a dimerising Fc or GST)
chain: SGRGEAETRECIYYNANWELERTNQSGLERCEGEQDKRLHCYASWRNSSGTIELVKKGCWLDDFNCYDRQECVATEENPQVYFCCCEGNFCNERFTHLPEAGGPEVTYEPPPTAPT
Activin A IC50, cell-based assay for SMAD pathway (A204 luciferase reporter) (Activin A [1]): 0.5 nM
Myostatin IC50, cell-based assay for SMAD pathway (A204 luciferase reporter) (Myostatin [2]): 0.5 nM

B2: FS315K(76,81,82)E-mFc (Fc fusion)
chain: GNCWLRQAKNGRCQVLYKTELSKEECCSTGRLSTSWTEEDVNDNTLFKWMIFNGGAPNCIPCKETCENVDCGPGKECRMNEENKPRCVCAPDCSNITWKGPVCGLDGKTYRNECALLKARCKEQPELEVQYQGRCKKTCRDVFCPGSSTCVVDQTNNAYCVTCNRICPEPASSEQYLCGNDGVTYSSACHLRKATCLLGRSIGLAYEGKCIKAKSCEDIQCTGGKKCLWDFKVGRGRCSLCDELCPDSKSDEPVCASDNATYASECAMKEAACSSGVLLEVKHSGSCNSISEDTEEEEEDEDQDYSFPISSILEW
notes: K76, K81, K82 to glutamic acid, fused with murine Fc; also called FS-EEE-mFc; not shown: murine Fc (mFc)
Activin A IC50, cell-based assay for SMAD pathway (A204 luciferase reporter) (Activin A [1]): 0.8 nM
Myostatin IC50, cell-based assay for SMAD pathway (A204 luciferase reporter) (Myostatin [2]): 0.7 nM
Kd (Myostatin [3]): 0.0148 nM
Kd (Activin A [4]): 0.0061 nM
Kd (Myostatin [5]): 0.0075 nM
